The values below come from patent US20030171289A1 (INSTITUT PASTEUR, published 2003).

The labels stand for the following.
B1: synthetic peptide V1 (ATWLPPR) (peptide)
peptide: ATWLPPR
notes: Synthetic peptide (Neosystem); also called V1 peptide
B2: phage-displayed peptide K3 (M13 phage clone) (peptide)
chain: TPHNTVS
notes: not shown: M13 phage coat protein of the Ph.D.-7 library
B3: phage-displayed peptide K7 (M13 phage clone) (peptide)
chain: ALQPRYL
notes: as for B2
B4: phage-displayed peptide K4 (M13 phage clone) (peptide)
chain: SLPAHAR
notes: as for B2
B5: phage-displayed peptide K1 (M13 phage clone) (peptide)
chain: YLTMPTP
notes: as for B2
B6: phage-displayed peptide K5 (M13 phage clone) (peptide)
chain: HSSLQTP
notes: as for B2
B7: phage-displayed peptide K2 (M13 phage clone) (peptide)
chain: WPTPPYA
notes: as for B2
B8: phage-displayed peptide K6 (M13 phage clone) (peptide)
chain: YSIPKSS
notes: as for B2
B9: phage-displayed peptide V6 (M13 phage clone) (peptide)
chain: LPPNPTK
notes: as for B2
B10: phage-displayed peptide V7 (M13 phage clone) (peptide)
chain: YAIMPLV
notes: as for B2
B11: phage-displayed peptide V5 (M13 phage clone) (peptide)
chain: ILDNYKL
notes: as for B2
B12: phage-displayed peptide V2 (M13 phage clone) (peptide)
chain: NPRALNY
notes: as for B2
B13: phage-displayed peptide V4 (M13 phage clone) (peptide)
chain: YHSSFQA
notes: as for B2
B14: phage-displayed peptide V3 (M13 phage clone) (peptide)
chain: ANLFKAK
notes: as for B2

T2 sequence (O14786 22-923 limits assumed): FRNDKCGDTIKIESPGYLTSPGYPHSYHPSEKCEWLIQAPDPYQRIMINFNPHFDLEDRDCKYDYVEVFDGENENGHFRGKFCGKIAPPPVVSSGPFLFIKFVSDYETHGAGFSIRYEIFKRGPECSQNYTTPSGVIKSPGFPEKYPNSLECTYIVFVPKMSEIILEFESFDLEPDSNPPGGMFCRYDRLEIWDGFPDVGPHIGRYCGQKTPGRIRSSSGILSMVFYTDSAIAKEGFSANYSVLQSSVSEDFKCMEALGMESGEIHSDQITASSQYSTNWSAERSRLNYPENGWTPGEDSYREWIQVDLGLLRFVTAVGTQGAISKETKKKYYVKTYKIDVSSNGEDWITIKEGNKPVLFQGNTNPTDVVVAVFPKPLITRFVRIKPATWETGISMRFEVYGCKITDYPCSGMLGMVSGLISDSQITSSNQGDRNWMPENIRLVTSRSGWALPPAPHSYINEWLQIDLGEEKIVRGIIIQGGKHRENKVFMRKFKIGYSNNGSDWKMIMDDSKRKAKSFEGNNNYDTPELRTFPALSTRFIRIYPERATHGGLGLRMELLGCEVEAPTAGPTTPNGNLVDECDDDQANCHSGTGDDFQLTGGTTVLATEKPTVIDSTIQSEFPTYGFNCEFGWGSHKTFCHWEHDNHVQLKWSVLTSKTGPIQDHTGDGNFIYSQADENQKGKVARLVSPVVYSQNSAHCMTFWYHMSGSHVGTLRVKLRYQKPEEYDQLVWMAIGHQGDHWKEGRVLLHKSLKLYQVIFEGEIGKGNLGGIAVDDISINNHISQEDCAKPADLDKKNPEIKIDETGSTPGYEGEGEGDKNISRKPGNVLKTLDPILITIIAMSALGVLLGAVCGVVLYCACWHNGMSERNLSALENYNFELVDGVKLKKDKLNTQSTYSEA

For one assay, the target named is T1, KDR (kinase domain receptor, VEGFR-2) expressed on cells (UniProt P35968 20-1356, limits assumed).
T1 construct: whole, on cells; The same molecule is used for KDR on CHO-KDR cells and for VEGF-R2 on HUV-EC cells; the cells are named under assay; also called KDR/Flk-1; VR2
T1 sequence (P35968 20-1356 limits assumed): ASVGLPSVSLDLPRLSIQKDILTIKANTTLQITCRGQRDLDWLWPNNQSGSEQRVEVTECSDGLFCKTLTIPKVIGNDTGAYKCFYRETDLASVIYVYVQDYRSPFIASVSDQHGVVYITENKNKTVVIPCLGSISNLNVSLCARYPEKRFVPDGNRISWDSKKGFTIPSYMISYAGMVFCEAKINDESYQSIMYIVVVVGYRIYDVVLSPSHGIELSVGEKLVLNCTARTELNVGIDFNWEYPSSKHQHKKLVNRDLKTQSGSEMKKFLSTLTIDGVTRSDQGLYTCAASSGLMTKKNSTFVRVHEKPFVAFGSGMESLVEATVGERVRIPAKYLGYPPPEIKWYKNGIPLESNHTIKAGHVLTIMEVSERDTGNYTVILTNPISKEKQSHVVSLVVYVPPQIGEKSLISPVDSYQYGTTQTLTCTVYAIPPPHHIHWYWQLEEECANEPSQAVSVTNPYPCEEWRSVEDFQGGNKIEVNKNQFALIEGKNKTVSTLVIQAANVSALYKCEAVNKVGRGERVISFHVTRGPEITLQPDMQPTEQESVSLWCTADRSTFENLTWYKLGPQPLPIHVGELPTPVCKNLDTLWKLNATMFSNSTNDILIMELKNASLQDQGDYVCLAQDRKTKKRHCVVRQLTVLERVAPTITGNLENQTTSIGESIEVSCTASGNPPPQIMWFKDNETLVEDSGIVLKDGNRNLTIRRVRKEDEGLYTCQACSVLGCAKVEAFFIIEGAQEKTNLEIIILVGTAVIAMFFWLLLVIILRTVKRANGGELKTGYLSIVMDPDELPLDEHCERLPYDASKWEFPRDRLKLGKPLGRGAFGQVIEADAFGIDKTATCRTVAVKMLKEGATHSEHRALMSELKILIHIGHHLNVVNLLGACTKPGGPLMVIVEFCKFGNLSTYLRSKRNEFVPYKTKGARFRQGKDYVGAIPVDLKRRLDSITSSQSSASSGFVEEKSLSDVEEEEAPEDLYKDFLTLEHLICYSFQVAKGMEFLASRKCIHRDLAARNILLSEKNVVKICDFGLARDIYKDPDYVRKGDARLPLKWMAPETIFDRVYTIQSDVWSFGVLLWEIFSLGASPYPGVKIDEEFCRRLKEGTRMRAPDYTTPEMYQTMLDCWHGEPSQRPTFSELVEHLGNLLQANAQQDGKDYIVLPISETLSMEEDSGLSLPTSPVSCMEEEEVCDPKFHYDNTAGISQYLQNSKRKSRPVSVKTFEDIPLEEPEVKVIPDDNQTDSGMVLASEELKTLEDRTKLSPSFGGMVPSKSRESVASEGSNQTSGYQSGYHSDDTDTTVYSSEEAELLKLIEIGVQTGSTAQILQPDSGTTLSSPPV
In words: displacement of 125I-VEGF165 from CHO-KDR cells. (Loss of bound radioactivity is the signal in a displacement assay; it reports binding, not function.)
Consider AAAAAAR (position 1 is already alanine) [V1 analogue A11 (the 6 amino acids upstream to arginine substituted by alanine)], for which the “factor by which the inhibitory efficiency is lowered against V1” value stood at 10 fold.

A further assay deals with T1, KDR (kinase domain receptor, VEGFR-2) …. The assay is described as follows: displacement of 125I-VEGF165 from CHO-KDR cells. The source holds these as a separate data set.
On to AAWLPPR (Ala scan analogue of ATWLPPR (V1)) [V1 analogue A2], for which the “Efficiency (% Emax)” value was 61 % Emax.
As to ATWLAPR (Ala scan analogue of ATWLPPR (V1)) [V1 analogue A5], the “Efficiency (% Emax)” value was determined as 65 % Emax.
On the same count and under the same terms, the value for ATALPPR (Ala scan analogue of ATWLPPR (V1)) [V1 analogue A3] was 70 % Emax.
ATWAPPR (Ala scan analogue of ATWLPPR (V1)) [V1 analogue A4]: the “Efficiency (% Emax)” value was 31 % Emax.
As for ATWLPAR (Ala scan analogue of ATWLPPR (V1)) [V1 analogue A6], the “Efficiency (% Emax)” value was determined as 84 % Emax.
On to B1, for which the “Efficiency (% Emax)” value is 100 % Emax.

For a further assay the target is unchanged. The assay is described as follows: competition with 125I-VEGF for binding to CHO-KDR cells, fixed peptide concentration.
Protocol: (§1) Competition assay of binding to CHO-KDR cells. CHO-KDR cells were seeded in 24-well plates at a density of 5×10⁵ cells/well. After 24 h, subconfluent plates were transferred at 4 C, and all subsequent operations were done at 4 C. […] After 3 h, cells were washed five times with binding buffer and solubilized by the addition of 0.5 M NaOH.
Consider SLPAHAR (Synthetic peptide (Neosystem)) [synthetic peptide K4 (SLPAHAR)], for which the binding result is listed as “binds”.

The target is the same in another assay. In words: phage ELISA on CHO-KDR cells, 10^13 pfu/ml.
Protocol: Results are representative of three independent assays.
(§2) Exponentially growing CHO-KDR cells were seeded in 96-well microtiter plates at 7×10⁴ cells/well and left overnight at 37 C. Cells were fixed with paraformaldehyde (4% in PBS) for 15 min at room temperature and washed with PBS. Wells were then filled with PBS-Glycine 0.2%, kept for 15 min at room temperature and then washed with PBS. Phage particles (10¹² or 10¹³/ml) were added to each well and incubated 2 h at room temperature. Wells were washed with PBS and the amount of bound phage was detected with peroxidase-conjugated anti-M13 phage serum (Pharmacia Biotech, Uppsala, Sweden).
Consider B2, for which the binding result is on record as “binds”.
For the molecule B3, the binding result is “binds”.
For the molecule B4, the binding result is “binds”.
As for B5, the binding result is on record as “binds”.
In the case of B6, the binding result was “binds”.
On the same count and under the same terms, the value for B7 was “binds”; that for B8 was “binds”.

Another assay has as its target T2, neuropilin 1 (UniProt O14786 22-923, limits assumed).
T2 construct: whole, on cells; also called NP 1; NP1
The assay is described as follows: displacement of 125I-VEGF165 from MDA-MB 231 cells (neuropilin 1, no VEGF-R2).
For the molecule B1, the IC50 (usually the point on the concentration scale where inhibition reaches its midpoint) was determined as 38 µg/mL.

The target of the next assay is T1, KDR (kinase domain receptor, VEGFR-2) …. The assay is described as follows: phage ELISA on fixed CHO-KDR cells. On the technique in general: An ELISA detects its analyte on a solid surface through an enzyme-linked reagent.
Protocol: as §2
On to B9, for which the binding result is given as “binds”.
Consider B10, for which the binding result was “binds”.
As for B11, the binding result is given as “binds”.
Same read-out and setting: for B12 the value was “binds”; for B13, “binds”.
For B14, the binding result is “binds”.

The target is the same in a further assay. In words: displacement of 125I-VEGF165 from CHO-KDR cells, curve fitting (CI50).
Turning to AAWLPPR (Ala scan analogue of ATWLPPR (V1)) [V1 analogue A2], the half-maximal inhibitory concentration (IC50) amounted to 30.9 µM.
The same measure, in the same setting: the value for ATWLAPR (Ala scan analogue of ATWLPPR (V1)) [V1 analogue A5] was 29.1 µM; that for ATALPPR (Ala scan analogue of ATWLPPR (V1)) [V1 analogue A3] was 26.8 µM.
ATWAPPR (Ala scan analogue of ATWLPPR (V1)) [V1 analogue A4] yielded an IC50 of 60.7 µM.
In turn, ATWLPAR (Ala scan analogue of ATWLPPR (V1)) [V1 analogue A6] displayed an IC50 of 22.4 µM.
On to B1, for which the IC50 came out at 18.8 µM.

For another assay the target is unchanged. The assay is described as follows: competition with 125I-VEGF for binding to CHO-KDR cells.
Protocol: as §1
For B1, the IC50 is about 80 µM.
